Data: the DeepSol protein solubility set

Test: soluble on expression in E. coli; label from the status in PepcDB or PDB records

Row | Sequence | soluble on expression in E. coli
1 | MGSDKIHHHHHHMYLIGSDIGTQGTKSVIVNEKGEVLAEAFREYEVITPKPNWAEQWPDVWVKAVFETVKEVVEKSGVSKKEIAGIAISGLYGGSGIPVDRNMQPLRPCLIWMDRRAVKETEWVKQNVPKEKLFEITGNYVDSYFGFTKIMWIRNNEPEIWEKIYKFITPKDYVIYQMTGEVVIDYSSAGNLGGVFDIRKLTWSKEMCDVLGIPIEFLPERIVKSSDVVGRVTKEASELCGLLEGTPVVAGGIDAPVAQLSAGALEEGEHVAMVGTSTCWGTVHDGSKLAFGLVNYPYVVYDTERIYTFGGSATTGALARWFKEQFGESETIVGERTGISPYQLFDKEVANIPAGSEGIIVLPYFMGERSPIWDPTARGVFFGVTLYHKRAHLYRALMEGGAYALRHNMEEGLKAGLKLNDECWIVGGVSKSSVWVKIFADVTGFKMRQVASLVEAPYGDAFLAGLGTGVIDKPERIKEWVKYRDPVEPDPENKKIYDRYYEIYRELYERTKDLMARL | not soluble
2 | MGSDKIHHHHHHMYRVIELGHVISAPFAGEILRHLGFEVIKIEPLLGDPSRKDDVLVDSMFVFNNRGKRSISVDLRKEKGKEVFLRLVRNSHVLIENLSPHVMDRLGLSDDVIFSTNPSLVYCSIKGYPKGKYENLPAFGTIIEAESGIMDANGKARLPASITDMNASTYCVITILWALLMKKPGHYRVSIIQANTVWLGYYLIAYQKYGKLFEAGKDELPFWAPYELFKSSEEKEFYLAVNDNEKFTKLCKALGLEDLLADERFKTNADRVRNRKILHEKLQQKFSSMKLEEIMNILRYNDIPVGKLNNLKDLISNELVEWDTFRNVQVPKLPLPGSLNSQHVPNVGEDTLYILKELGYSENEIESMIKENVINYNK | not soluble
3 | MAGDPMKSPCILLIIVCTLSLTGCASTKQADSDSSLGKAQQTLDSLYQHYSAKDSYLLRENYPFNEQYKVTYLASENQTNMPNQFSYLWPYSGTFSAVNSLLEATHDKKYQQLLEKQVLPGLEEYFDTERTPIAYSSYIRTAPTSDRFYDDNIWVGIDFIDIYQITKEKKYLDKAQLIWNFIESGTDSLLGDGIYWCEQKKESKNTCSNAPGSVFALKLFKATNDSLYFKRGKELYKWTQKNLQDSTDYLYFDNIRLDGKIGKAKFAYNSGQMMQSAALLYQLTKNPDYLKDAQSIAKECYNYFFTDFTTDTGESLKMLKQGNIWFTAVMLRGFIELYQLDQNKTFIDAFNQCLSYAWDNARDENGLFSTDLTGNNNNEKKWLLTQAAMVEMYSRLATIQLEHHHHHH | soluble
4 | MSLRAIGLSNQVQHLKETVIAVEKKSKHKKTDDSLDISRIQYYMNNFVYYYINYSQDTADQRKTELENYYSFSTASMTDDVRKSRTLQTQRLISVEKEKDYYIALMRIGYEVDKKSYQMNLAVPFQMQRGLLAIVSQPYTVAEDLYLGKSKAFEKKTLDQVKELSKEQVSSIQKFLPVFFNKYALINKTDLKLLMKTPELMGKGFKVSELDLNNAIYYQEKKHQVVQLSVTFEDLVTGGTRSENFTLYLFKADNGWYVEEMYHYFKEGHHHHHH | soluble
5 | MGSDKIHHHHHHMIIELFGPPGAGKTTLLRGLCQGMAKHGINVKTVNGYRLIEYGSAQEDGPEVRHGIGRIGKKIATSGPVLLSTLPKDGVAARLLASIPLRSLTWSWRMKVDIALLCESWRQAQESEGYFIFEEGIIQALCALVVLARTPSIDVVRDCLAFLPRPDLLIQLDAPQETLRRRLMDRHAQQPLLEVLLFELGVDRGLRQADISRDIGKCLRQDGWPLIKVNGAEPHDLDKIITRILEEHETVPV | not soluble
6 | MAHHHHHHMMSQSLNALRSGTACFPTTIAQQRRWITRLYTSYYPGVLYPNQLVQHKQRLPPGVSLSTALKARTQTRQEQSVAGREVPEENETRGVSWTDASSTDVMHTGNARRQEKVSVATGRSYVPLGEVAKLELQGDYCMEGGLFQEALERYGVVAKAYSIAYPENHSQRIGILLKLASAFRHVGRLDSSKVNIENALKMLDASSRPSLELICEALLELGLTREAKSMKNEGAEAYEEAVEVLNLFHNWGESHRMLRLLPRLGRRFNLNFEEKFVYFSPFDYDRTFAIADQCMERAEKVYRETGDSNGIIRVLQCRKEMIDKKFFNLRDFAGRIHTMRGHWMRRAQHLTNAPTPDELLRYTPTIHQVYRDFKYELTAPIGREKEVMPGVNRVVLDMGNPYRRRGRLSNKMLRDADHNFANYVRREEYNA | not soluble
7 | MNQNLLVTKRDGSTERINLDKIHRVLDWAAEGLHNVSISQVELRSHIQFYDGIKTSDIHETIIKAAADLISRDAPDYQYLAARLAIFHLRKKAYGQFEPPALYDHVVKMVEMGKYDNHLLEDYTEEEFKQMDTFIDHDRDMTFSYAAVKQLEGKYLVQNRVTGEIYESAQFLYILVAACLFSNYPRETRLQYVKRFYDAVSTFKISLPTPIMSGVRTPTRQFSSCVLIECGDSLDSINATSSAIVKYVSQRAGIGINAGRIRALGSPIRGGEAFHTGCIPFYKHFQTAVKSCSQGGVRGGAATLFYPMWHLEVESLLVLKNNRGVEGNRVRHMDYGVQINKLMYTRLLKGEDITLFSPSDVPGLYDAFFADQEEFERLYTKYEKDDSIRKQRVKAVELFSLMMQERASTGRIYIQNVDHCNTHSPFDPAIAPVRQSNLCLEIALPTKPLNDVNDENGEIALCTLSAFNLGAINNLDELEELAILAVRALDALLDYQDYPIPAAKRGAMGRRTLGIGVINFAYYLAKHGKRYSDGSANNLTHKTFEAIQYYLLKASNELAKEQGACPWFNETTYAKGILPIDTYKKDLDTIANEPLHYDWEALRESIKTHGLRNSTLSALMPSETSSQISNATNGIEPPRGYVSIKASKDGILRQVVPDYEHLHDAYELLWEMPGNDGYLQLVGIMQKFIDQSISANTNYDPSRFPSGKVPMQQLLKDLLTAYKFGVKTLYFQNTRDGAEDAQDDLVPSIQDDGCESGACKI | soluble
8 | EYYDVRGWDPHDRQVYTPIHEACYDRGGIFFAFFDDEQMIAAAALDTLPRGMNGELRQLLFFYVGAGKRGQGWGRRLFQYALHQLPEMGASGLYISSIPNKNTVDFYLAQG | not soluble
9 | MGSDKIHHHHHHMKPRACVVVYPGSNCDRDAYHALEINGFEPSYVGLDDKLDDYELIILPGGFSYGDYLRPGAVAAREKIAFEIAKAAERGKLIMGICNGFQILIEMGLLKGALLQNSSGKFICKWVDLIVENNDTPFTNAFEKGEKIRIPIAHGFGRYVKIDDVNVVLRYVKDVNGSDERIAGVLNESGNVFGLMPHPERAVEELIGGEDGKKVFQSILNYLKR | not soluble
10 | MLLNAVNQNQPTIAAEINYIKPNIQATFDLSTSKKSADTLTEQVDKRVVEITDARLLAKTATLKEDGFGLVANKYHMADYFDDAMVSTELYPQIIKHLMSLTNASKGVVFDHTIRSVEDKLHRAEKRSPIHTVHNDYVASSAQHRLHIELEKQGLKASDYHRYQFINTWIPLVDVVLDSPLAFADMRSVTSEQSHLLQVAYPDRVGEIEGFSYNPNNRWFYFSRMTSKEQLNFKVFDSDKSNAVNRTPHSAFLLPSVAENVQSRVSIELRTILLFNKLEHHHHHH | not soluble
11 | GSHMRLGAQSIQPTANLDRTDDLVYLNVMELVRAVLELKNELAQLPPEGYVVVVKNVGLTLRKLIGSVDDLLPSLPSSSRTEIEGTQKLLNKDLAELINKMRLAQQNAVTSLSEECKRQMLTASHTLAVDAKNLLDAVDQAKVLANLAHPPAE | soluble
12 | MSLNKFVDREGSVVAVYAAKSKAGCSAPDVEKVNQDAFCLVEKYGDSPNLSWFSVMDGHGLNGHLVSDIVRQILHKNVQECPEFNRDIKQALQKGFFRTNCELFQPGIDITMSGTTCVACVFHGSTLYSANVGDSRAIMGRSNGKGGWTSLSLTHDHKPDRPDEEKRILAADGRVGALKGPNGEALGPARVWRKDCDAPGLAMSRSLGDSLAASVGVIDDFIVIASDGLWEFMTNEEVTQIVSRFLDSRDPLGACDGLIEEANRRWRLEDDVIDDTTVVVIFLDVGRKEGHHHHHH | not soluble
13 | MNTSILAPPESLLEAQKVRLAIREGYDRPTAGMANGLTQVNMISVPQDWAYDFLLYTQRNPQSCPVLDVIDAGQFQSRLIQDKQHDIRTDFPRYRIWEYGQCVDEVNDATSIWNNHPDLVTFLIGCSFSFESALLNAGIEVRHITDQRNVPMYLSNIPCASAGRISGNMVVSMRPIPAAQVSQAVQITAKMPRVHGAPVHIGDPKSLGIADLSKPDFGDFPRILDGEIPVFWACGVTPQAAVMRSKVPFAISHAPGYMLITDVPDQAWMLLEHHHHHH | not soluble
14 | MKISPSLMCMDLLKFKEQIEFIDSHADYFHIDIMDGHFVPNLTLSPFFVSQVKKLATKPLDCHLMVTRPQDYIAQLARAGADFITLHPETINGQAFRLIDEIRRHDMKVGLILNPETPVEAMKYYIHKADKITVMTVDPGFAGQPFIPEMLDKLAELKAWREREGLEYEIEVDGSCNQATYEKLMAAGADVFIVGTSGLFNHAENIDEAWRIMTAQILAAKSEVQPHAKTA | soluble
15 | MGHHHHHHSHMKATSVIDDFLGGYFCILGLLQPHLERVAIDALQLCCLLLPPPNRRKLQLLMRMISRMSQNVDMPKLHDAMGTRSLMIHTFSRCVLCCAEEVDLDELLAGRLVSFLMDHHQEILQVPSYLQTAVEKHLDYLKKGHIENPGDGLFAPLPTYSYCKQISAQEFDEQKVSTSQAAIAELLENIIKNRSLPLKEKRKKLKQFQKEYPLIYQKRFPTTESEAALFGDKPTIKQPMLILRKPKFRSLR | not soluble
16 | MSQFSFTKMHGLGNSYIYVNMFEEQIPEEDLALVAEKVSNINTGIGADGMILICPSDVAPVKMRMFNNDGSEGKSCGNGLRCVAKYAYEHKLVEDTVFTIETLAGIVTAEVTVEEGKVTLAKIDMGAPRLTRAEIPMLGEGETPFIRENFLYNNHRYAFTAVSMGNPHAVIFVDDVEQAPLTTLGPVLETHEMFPERVNVEFIEILNEEEMNFRVWERGSGVTQACGTGACAAVVASILNGKMERGKEITVHLAGGDLMIAWTEEGNVLMKGPAEVICRGVYEYKIEA | not soluble
17 | MSLSQQVIIFDTTLRDGEQALQASLSVKEKLQIALALERMGVDVMEVGFPVSSPGDFESVQTIARQVKNSRVCALARCVEKDIDVAAESLKVAEAFRIHTFIATSPMHIATKLRSTLDEVIERAIYMVKRARNYTDDVEFSCEDAGRTPIADLARVVEAAINAGATTINIPDTVGYTMPFEFAGIISGLYERVPNIDKAIISVHTHDDLGLAVGNSLAAVHAGARQVEGAMNGIGERAGNCSLEEVIMAIKVRKDILNVHTAINHQEIWRTSQLVSQICNMPIPANKAIVGSGAFAHSSGIHQDGVLKNRENYEIMTPESIGLNQIQLNLTSRSGRAAVKHRMDEMGYKESEYNLDNLYDAFLKLADKKGQVFDYDLEALAFIGKQQEEPEHFRLDYFSVQSGSNDIATAAVKLACGEEVKAEAANGNGPVDAVYQAINRITEYNVELVKYSLTAKGHGKDALGQVDIVANYNGRRFHGVGLATDIVESSAKAMVHVLNNIWRAAEVEKELQRKAQHNENNKETVEGGSHHHHHH | soluble
18 | MGSDKIHHHHHHMSLTDGPYAGPPQPDVVDPSGGANQTRVRAYNERLVMSLVRRHGSLSKAEIARRSGLSAQTASVIMRSLEADGLLVRGAPVRGRVGQPSIPMRLNPDAVYSFGVKIGRRSADLVLMDFLGTIRLHLHQIHTYPLPEEIVSFIVGGIGKLEGQLGPGERGRIAGVGIATPFELWNWSEEVGAPREEMDRWRDFDLQAAVASRIRHPVFLQNDGTSACGAELAFGVGASYPDFVYFYIGSFIGGGVVINSALFSGRTGTAGAVGPLPVAGKDGKSTQLLKIASVFVLEKLLRERGIDPEPLWYSADDWIDFGEPLEIWIQDAAAALAQAVVSAVSVVDFSAAVIDGGFPPWVRARLLAATRKALQTLDLQGVTVPDLVEGTVGSHARAIGGASLPLFSRYLLDTNVLFKEL | not soluble
19 | MSAEAVIENRDYTLMIDKSSSMATADDPNGPTRWEIAQASTIALAKKCEEIDSDGITVYLFSGRFRRYDNVTAEKVAYIYANNEPMGRTDLAGALKDGLDNFFQRRQAGQTKPNGETFLIITDGEPTDRKAVIRLILEASQKIDRDEELAISLIQVGRDKKATAFFQALDDQLQAAGAKFDIVDTVTMEDMQGMSLSDVLLKAITDLEHHHHHH | not soluble
